In the supplement of paper PMC7877785:
± gives the uncertainty stated by the source.

Assay: self-splicing fitness, log relative to wild type (ln ratio); higher = more splicing; Tetrahymena group I intron in knt gene, E. coli kanamycin selection, DiMSum; sequences stand for … in CUCUCU…GGAGGGAAAAGUUAUCAGGCAUGCACCUGGUAGCUAGUCUUUAAACCAAUAGAUUGCAUCGGUUUAAAAGGCAAGACCGUCAAAUUGCGGGAAAGGGGUCAACAGCCGUUCAGUACCAAGUCUCAGGGGAAACUUUGAGAUGGCCUUGCAAAGGGUAUGGUAAUAAGCUGACGGACAUGGUCCUAACCACGCAGCCAAGUCCUAAGUCAACAGAUCUUCUGUUGAUAUGGAUGCAGUUCACAGACUAAAUGUCGGUCGGGGAAGAUGUAUUCUUCUCAUAAGAUAUAGUCGGACCUCUCCUUAAUGGGAGCUAGCGGAUGAAGUGAUGCAACACUGGAGCCGCUGGGAACUAAUUUGUAUGCGAAAGUAUAUUGAUUAGUUUUGGAGUACUCGUGGUCG
Outline: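 A randomised library covering all eight P1ex-region intron nucleotides was built with the intron in the knt kanamycin-resistance gene on pET-22b(+) and held in E. coli BL21(DE3). Cells were grown overnight at 37°C or 30°C on LB agar, with or without 25 μg/mL kanamycin, plus 100 μg/mL carbenicillin, 50 μM IPTG and 0.2% rhamnose, and pooled colonies were amplicon-sequenced on an Illumina HiSeq 2500. DiMSum fitness is the error-weighted combination of wild-type-normalised replicate fold changes, kanamycin versus none.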

Sequence	self-splicing fitness (ln) (30 °C)	self-splicing fitness (ln) (37 °C)
CGAGAGCAAUAUUACGGGUA	-2.27 ± 0.31	-2.23 ± 0.27
CGAGAGCAAUAUUACGGUAG	-1.73 ± 0.23	-1.65 ± 0.33
CGAGAGCAAUAUUACGGUGA	-3.9 ± 0.22	-2.44 ± 0.2
CGAGAGCAAUAUUACGUCUU	-3.66 ± 0.43	-1.39 ± 0.22
CGAGAGCAAUAUUACGUGAG	-1.51 ± 0.18	-1.75 ± 0.48
CGAGAGCAAUAUUACGUGUC	-3.05 ± 0.14	-2.17 ± 0.16
CGAUAGCAAUAUUACGAGAU	-4.01 ± 0.39	-2.73 ± 0.25
CGAUAGCAAUAUUACGAUAU	-3.53 ± 0.16	-1.47 ± 0.12
CGAUAGCAAUAUUACGCACG	-2.6 ± 0.36	-1.91 ± 0.37
CGAUAGCAAUAUUACGCAUG	-1.79 ± 0.07	-0.761 ± 0.069
CGAUAGCAAUAUUACGCCCC	-1.99 ± 0.29	-0.838 ± 0.29
CGAUAGCAAUAUUACGCGAU	-3.09 ± 0.18	-2.6 ± 0.29
CGAUAGCAAUAUUACGCGCG	-2.92 ± 0.15	-1.59 ± 0.14
CGAUAGCAAUAUUACGCUAC	-2.95 ± 0.29	–
CGAUAGCAAUAUUACGCUCA	-0.478 ± 0.11	0.119 ± 0.15
CGAUAGCAAUAUUACGGAAC	-2.5 ± 0.2	-2.68 ± 0.25
CGAUAGCAAUAUUACGGCCG	-0.641 ± 0.087	-0.184 ± 0.15
CGAUAGCAAUAUUACGGUAU	-2.78 ± 0.14	-1.79 ± 0.17
CGAUAGCAAUAUUACGUAUA	-2.37 ± 0.15	-3.14 ± 0.23

Sequence	self-splicing fitness (ln) (30 °C)	self-splicing fitness (ln) (37 °C)
CGAUAGCAAUAUUACGUCAA	-3.18 ± 0.18	-2.08 ± 0.15
CGAUAGCAAUAUUACGUCAU	-2.2 ± 0.15	-2.02 ± 0.18
CGAUAGCAAUAUUACGUCCU	-1.29 ± 0.16	-0.541 ± 0.19
CGAUAGCAAUAUUACGUCUA	-1.89 ± 0.13	-0.377 ± 0.11
CGAUAGCAAUAUUACGUUCG	-3.06 ± 0.24	-1.9 ± 0.33
CGCAAGCAAUAUUACGAGAU	-3.04 ± 0.38	-1.59 ± 0.26
CGCAAGCAAUAUUACGAUGG	-0.351 ± 0.081	-0.239 ± 0.095
CGCAAGCAAUAUUACGAUGU	-1.6 ± 0.075	-0.734 ± 0.1
CGCAAGCAAUAUUACGCAAA	-1.92 ± 0.22	-2.99 ± 0.37
CGCAAGCAAUAUUACGCACA	-0.694 ± 0.096	-0.825 ± 0.1
CGCAAGCAAUAUUACGCCUU	-2.63 ± 0.17	-2.62 ± 0.26
CGCAAGCAAUAUUACGCGAG	-3.98 ± 0.31	-2.43 ± 0.3
CGCAAGCAAUAUUACGCGCA	-1.1 ± 0.086	-1.46 ± 0.13
CGCAAGCAAUAUUACGCGGG	-4.14 ± 0.42	-2.31 ± 0.23
CGCAAGCAAUAUUACGCUAA	-2.42 ± 0.17	-3.24 ± 0.33
CGCAAGCAAUAUUACGCUGA	-3.11 ± 0.26	-2.01 ± 0.22
CGCAAGCAAUAUUACGGGUC	-3.87 ± 0.23	-3.77 ± 0.28
CGCAAGCAAUAUUACGGGUG	-1.59 ± 0.062	-0.366 ± 0.08
CGCAAGCAAUAUUACGGUAC	-4.99 ± 0.45	-3.6 ± 0.16
